Source: US8273357B2, “Antigen-carbohydrate conjugates” (Massachusetts Institute of Technology, priority 2004, dated 2012)
Entries after “also recorded” stand apart in the source; their conditions may differ.

Experiments:
[1] = test system: CD8α+ and CD8α− dendritic cells; test: Antigen presentation by sorted CD8α+ and CD8α− dendritic cell subsets to OTII T cells; type: cell-based, mouse; conditions: for presentation to OTII T cells by individual dendritic cell subsets: CD8α+ and CD8α− subsets
Procedure: FIG. 5 is a graph showing that both dendritic cell subsets, i.e., cells that are CD8α+ and CD8α^−, can present (OVA)-301. CD11c+ dendritic cells were stained with antibody against CD8α and I-A^b MHC class H molecules and sorted into their respective CD8α+ and CD8α^− populations. 2×10^4 cells of each subtype were incubated with 1×10^5 purified OTII T cells with graded doses of OVA or (OVA)-3-1 for eighty-four hours with [^3H]thymidine (1 μCi) added for the last twelve hours. All data points were performed in triplicate.
In the mouse, there are three subsets of dendritic cells, which are defined by their expression of the cellular antigens CD8 and CD4, namely CD8 α^+CD4^−, CD8α^−CD4^+, and CD8αCD4^14,15. Many functional differences among these subsets have been described and it has been argued that the CD8α^+ subset may be solely responsible for maintaining peripheral tolerance while the CD8α^− subset induces immunity to captured antigen^14 To determine if the high-mannose receptor was restricted to a particular subset, a fluorescence cell sorter was used to separate dendritic cells into their respective CD8α^+ and CD8α^− subsets. Each subset was then tested for its ability to present OVA and (OVA)-3-1 to OTII T cells (FIG. 5). […] Thus, both dendritic cell subsets expressed a receptor capable of binding nonasaccharide 3-1 and mediating uptake of antigens modified with this oligosaccharide.
To obtain sufficient numbers of dendritic cells for antigen presentation and cytokine analysis, C57BL/6 mice were injected with a Flt3-ligand secreting tumor cell line to promote the expansion of dendritic cells. Fourteen days after this administration the mice were sacrificed and the spleens were isolated. Dendritic cells were purified from the spleens by positive selection with anti-CD11c microbeads as described above and stained with FITC-conjugated anti-1-A^b and cychrome-conjugated anti-CD8α. Cells were then sorted on a fluorescence-activated cell sorter, a MoFlo, (Dakocytomaton, Glostrup Denmark) into CD8α^+I-A^b+ and CD8α^−I-A^b+ populations. The purity of each subset was 80% with approximately 6% cross-contamination. Dendritic cells from each subset were used in antigen proliferation assays as described above (section 3.5.5).

OTII T cells = test: In vitro restimulation with OVA peptide of T cells from immunized, rechallenged mice; type: in vivo, mouse; conditions: OVA peptide 100 μg mL^−1, 24 h
Procedure: FIGS. 8A and 8B are a series of dot plots (FIG. 8A) and a graph (FIG. 8B) showing that the oligosaccharide-mediated targeting of steady state dendritic cells leads to T cell tolerance. […] 2×10^7 OTII splenocytes were adoptively transferred into B6.Ly5.2/Cr recipients and then immunized by subcutaneous injection with PBS, OVA (200 ng), (OVA)-3-1 (200 ng), (OVA)-3-1 (200 ng)+mBSA (50 μg) or OVA peptide (100 μg) in Incomplete Freund's Adjuvant. At 8 days after these initial immunizations, mice received an antigenic rechallenge of OVA peptide (100 μg) in Complete Freund's Adjuvant. On day ten mice were sacrificed and cells were isolated from the draining lymph node, total T cells were purified by negative selection and the number of OTII T cells were counted by FACS as described for FIG. 6. […]
For T cell proliferation assays in adoptive transfer experiments, inguinal lymph nodes from each experimental group (3 mice/group) were pooled and dissociated with collagenase/EDTA as described above. […] Response to OVA peptide was determined by subtracting background proliferation (no peptide) from specific, peptide-induced proliferation. […] The proliferation index was calculated as the ratio of the response to OVA peptide in an experimental group to the response to OVA peptide in the PBS group.

Row | Molecule | presentation to OTII T cells by individual dendritic cell subsets [1] | presentation to OTII T cells by individual dendritic cell subsets ([1]; listed as (OVA)-301) | efficiency of presentation by CD8α+ subset relative to CD8α− subset ([1]; sorted subsets, OTII T cells) | ability of T cells from immunized mice to respond to dendritic cell-presented OVA peptide in vitro (OTII T cells)
1 | (OVA)-3-1: ovalbumin modified via SMCC with nonasaccharide 3-1, average of three saccharides per OVA (conjugate) GSIGAASMEFCFDVFKELKVHHANENIFYCPIAIMSALAMVYLGAKDSTRTQINKVVRFDKLPGFGDSIEAQCGTSVNVHSSLRDILNQITKPNDVYSFSLASRLYAEERYPILPEYLQCVKELYRGGLEPINFQTAADQARELINSWVESQTNGIIRNVLQPSSVDSQTAMVLVNAIVFKGLWEKAFKDEDTQAMPFRVTEQESKPVQMMYQIGLFRVASMASEKMKILELPFASGTMSMLVLLPDEVSGLEQLESIINFEKLTEWTSSNVMEERKIKVYLPRMKMEEKYNLTSVLMAMGITDVFSSSANLSGISSAESLKISQAVHAAHAEINEAGREVVGSAEAGVDAASVSEEFRADHPFLFCIKHIATNAVLFFGRCVSP | presented by each subset | can present | approximately 2 fold | significantly less responsive; also recorded: refractory to antigenic stimulation in vitro
2 | ovalbumin (protein, UniProt P01012 2-386, looked up, model antigen, unmodified) Ovalbumin: GSIGAASMEFCFDVFKELKVHHANENIFYCPIAIMSALAMVYLGAKDSTRTQINKVVRFDKLPGFGDSIEAQCGTSVNVHSSLRDILNQITKPNDVYSFSLASRLYAEERYPILPEYLQCVKELYRGGLEPINFQTAADQARELINSWVESQTNGIIRNVLQPSSVDSQTAMVLVNAIVFKGLWEKAFKDEDTQAMPFRVTEQESKPVQMMYQIGLFRVASMASEKMKILELPFASGTMSMLVLLPDEVSGLEQLESIINFEKLTEWTSSNVMEERKIKVYLPRMKMEEKYNLTSVLMAMGITDVFSSSANLSGISSAESLKISQAVHAAHAEINEAGREVVGSAEAGVDAASVSEEFRADHPFLFCIKHIATNAVLFFGRCVSP | only weakly presented |  |  | strongly activated
